This note sets out measurements from patent publication CN117460833A (dated 2024).

This test concerns the target 重组小鼠ROR1 IgG2-Fc融合蛋白 (R&D系统公司, 目录号9910-RO-050) (mouse, UniProt Q9Z139 30-403). Kind of test: ELISA, coated mouse ROR1 IgG2-Fc, antibody dilutions, anti-human IgG Fc-HRP. For orientation: ELISA stands for enzyme-linked immunosorbent assay.

Where a chain is given by its changes, count along the chain named.

Sequence of 重组小鼠ROR1 IgG2-Fc融合蛋白 (R&D系统公司, 目录号9910-RO-050) (Q9Z139 30-403 limits assumed): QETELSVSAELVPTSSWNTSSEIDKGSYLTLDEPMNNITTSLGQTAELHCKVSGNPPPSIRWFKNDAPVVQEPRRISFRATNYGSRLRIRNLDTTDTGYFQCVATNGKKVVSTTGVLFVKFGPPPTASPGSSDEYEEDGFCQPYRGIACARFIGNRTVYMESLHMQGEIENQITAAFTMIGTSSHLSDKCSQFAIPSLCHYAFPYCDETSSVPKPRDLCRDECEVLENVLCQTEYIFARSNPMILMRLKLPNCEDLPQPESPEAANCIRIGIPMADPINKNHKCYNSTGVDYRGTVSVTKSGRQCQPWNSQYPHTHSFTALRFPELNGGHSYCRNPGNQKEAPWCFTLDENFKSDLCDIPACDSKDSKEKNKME

B1: s10 (RO6D8-s10) 抗ROR1单克隆抗体 (antibody, V domains shown)
VH: QVQLVQSGAEVKKPGASVKVSCKASGYTFTNYYMHWVRQAPGQGLEWMGIINPSGGSTSYAQKFQGRVTMTRDTSTSTVYMELSSLRSEDTAVYYCARSSRSSYYLWVLDLWGQGTTVTVSS
VL: AIQMTQSPSSLSASVGDRVTITCRASQGVSTEIAWYQQKPGKAPKLLIYAASSLQSGVPSRFSGSGSGTDFTLTISSLQPEDFATYYCQQFNSYPITFGQGTRLEIK
Turning to B1, the binding result is “binds”.

B2: jlv1011 (RO6D8-jlv1011) 抗ROR1单克隆抗体 (antibody, V domains shown)
VH: QVQLVQSGAEVKKPGASVKVSCKASGYTFTSKYYHWVRQAPGQGLEWMGIINPTSGSTSYAQKFQGRVTMTRDTSTSTVYMELSSLRSEDTAVYYCARDSSRYSGWYFDLWGQGTTVTVSS
VL: B1 VL with M4L, F91Y, N92Y, S93G, T97A
Regarding B2, the binding result was “binds”.
